Here are results for six substances from US20110045604A1.

For experiment [1], the target named is SUMO-ARVCF peptide fusion protein (yeast). Nature of the experiment: SPR; linker mutant immobilised on Ni-NTA chip, SUMO-peptide fusion as analyte. For orientation: In SPR one partner is held on a chip, and binding of the other changes the refractive index at the surface.
In experiment [2] the target is SUMO-δ-catenin peptide fusion protein (yeast). Nature of the experiment: ratio of SPR Kd values, reference ARVCF peptide.
In experiment [3] the target is SUMO-ARVCF peptide fusion protein, Ala substitution at position -4 (yeast). Kind of experiment: SPR, Ala scanning; reference wild-type ARVCF peptide.
Experiment [4] concerns the target SUMO-ARVCF peptide fusion protein, Ala substitution at position -5 (yeast). The experiment is described as above.
Experiment [5] deals with SUMO-ARVCF peptide fusion protein, Ala substitution at position -6 (yeast). Described as above.
Experiment [6] has as its target SUMO-ARVCF peptide fusion protein, Ala substitution at position -7 (yeast). The description is as above.
The target of experiment [7] is SUMO-δ-catenin peptide fusion protein (yeast). Kind of experiment: binding analysis of purified protein; reference ARVCF peptide.
Experiment [8] deals with SUMO-ARVCF peptide fusion protein (yeast). Nature of the experiment: SPR; clamp immobilised on Ni-NTA chip, SUMO-peptide fusion as analyte.
For experiment [9] the target is unchanged. Nature of the experiment: SPR (BIAcore 2000); clamp immobilised on Ni-NTA chip, SUMO-peptide fusion as analyte.
For experiment [10] the target is unchanged. Kind of experiment: SPR; linker mutant against ePDZ-b with the GGSGG linker.

Chain of ePDZ-b linker mutant GGSG (Q96RT1 other isoform, or with tags, fused parts or gaps, change not shown): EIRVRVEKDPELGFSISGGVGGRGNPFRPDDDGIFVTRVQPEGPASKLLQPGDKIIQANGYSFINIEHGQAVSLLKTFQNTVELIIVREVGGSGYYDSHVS
Chain of ePDZ-b linker mutant GGS (Q96RT1 other isoform, or with tags, fused parts or gaps, change not shown): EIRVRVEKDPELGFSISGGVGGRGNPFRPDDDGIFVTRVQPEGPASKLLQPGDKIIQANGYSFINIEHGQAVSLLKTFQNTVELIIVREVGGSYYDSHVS
Chain of ePDZ-a linker mutant GG (Q96RT1 other isoform, or with tags, fused parts or gaps, change not shown): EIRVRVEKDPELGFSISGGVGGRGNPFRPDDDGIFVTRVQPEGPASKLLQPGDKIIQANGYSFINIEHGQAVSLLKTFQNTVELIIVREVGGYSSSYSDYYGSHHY
Chain of ePDZ-a linker mutant GGS (Q96RT1 other isoform, or with tags, fused parts or gaps, change not shown): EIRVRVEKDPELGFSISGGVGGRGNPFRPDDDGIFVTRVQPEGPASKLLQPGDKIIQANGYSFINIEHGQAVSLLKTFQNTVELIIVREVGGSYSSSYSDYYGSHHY
Chain of ePDZ-a linker mutant GGSG (Q96RT1 other isoform, or with tags, fused parts or gaps, change not shown): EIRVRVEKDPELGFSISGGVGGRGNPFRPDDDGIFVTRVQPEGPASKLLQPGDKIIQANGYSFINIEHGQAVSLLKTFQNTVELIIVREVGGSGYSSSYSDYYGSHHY

Usually Kd stands for the concentration at which binding is half-saturated. Low values mean higher affinity, high ones lower affinity. In experiment [1], “ePDZ-a linker mutant GG (from UniProt Q96RT1 1321-1410) (designed binder)” gave a Kd of 311 nM.

In turn, “ePDZ-a linker mutant GGS (from UniProt Q96RT1 1321-1410) (designed binder)” showed a Kd in [1] of 134 nM.

With “ePDZ-a linker mutant GGSG (from UniProt Q96RT1 1321-1410) (designed binder)”, the Kd in experiment [1] came out at 117 nM.

What is called koff is the first-order rate constant of dissociation. The low end stands for slow dissociation, the high end for fast dissociation. What is called kon is a measure of how fast the partners come together. High values mean fast association, low ones slow association. For “ePDZ-b (from UniProt Q96RT1 1321-1410) (designed binder)”, in [2], the Specificity Index (Kd for δ-catenin / Kd for ARVCF) is above 446. Also, the fold decrease in binding affinity against the wild-type ARVCF peptide in [3], in [4], in [5] and in [6] was above 5 fold throughout. The ΔΔG upon Ala substitution of the ARVCF peptide in experiment [3] was above 3 kcal/mol; in experiment [4], above 1 kcal/mol; in experiment [5] it was above 1 kcal/mol; in [6] it was above 1 kcal/mol. Besides, the fold discrimination between the two targets in [7] was 200 fold. For the same substance, the Kd in [8] and in experiment [9] was 56 nM each time. This substance had a koff in [9] of 0.011 s⁻¹. Besides, the kon in [9] worked out at 190000 M⁻¹ s⁻¹.

On to “ePDZ-b linker mutant GGS (from UniProt Q96RT1 1321-1410) (designed binder)”, for which the Kd in [1] was above 5000 nM.

As to “ePDZ-b linker mutant GGSG (from UniProt Q96RT1 1321-1410) (designed binder)”, the fold reduction of binding affinity against the original linker in experiment [10] amounted to 8 fold. In experiment [1], this substance came in with a Kd of 412 nM.
